Test results: paper PMC2189805

Target: SETα (human (endogenous in HeLa)) (UniProt Q01105)
Assay: co-IP

UniProt Q01105, sequence (Q01105 2-290): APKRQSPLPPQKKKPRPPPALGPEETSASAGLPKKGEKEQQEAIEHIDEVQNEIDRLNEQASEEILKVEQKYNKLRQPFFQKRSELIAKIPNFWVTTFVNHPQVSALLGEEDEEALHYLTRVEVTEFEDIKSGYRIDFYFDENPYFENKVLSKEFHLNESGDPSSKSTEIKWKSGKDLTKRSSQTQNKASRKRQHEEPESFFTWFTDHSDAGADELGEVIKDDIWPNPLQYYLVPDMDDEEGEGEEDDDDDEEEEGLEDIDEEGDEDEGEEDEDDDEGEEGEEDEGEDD

## HuR (endogenous) (from UniProt Q15717 1-326) (natural protein)
  percent of total cellular HuR bound: 5%
